Experimental data reported in the DeepSol protein solubility set.

assay: soluble on expression in E. coli; label from the status in PepcDB or PDB records

| Sequence | soluble on expression in E. coli |
| --- | --- |
| MGSDKIHHHHHHMTVQSSDVIAPPAPRTLPDTGLSLVMLRDILLKTMFRMNLELVSQIAPVICLPAPLAQELVDLARSQRLVEATGTLHATSGNEMGYQLTDQGKARALDALSQSEYYGAMPVPLDRYRLQVERQSVRHIKLTRAQLTAAMGHLILPDELLDHLGPAVTSGRSILMYGPPGNGKSSISNGIRDALGDRIYVPRALEYSGQVITVYDPIVHRSAESAVDDPTSLRRTSNRFDNRYVWCERPTVITGGELTLDMLDLTYNPVARTYQAPLQLKATGGIFIVDDLGRQAEPPQKLVNRWIVPLEENRDILALQSGEKFTVPFDTLVIFSTNFHPNEIFDGAALRRIFFKIKVDGPSQENFLKIFAMVAKKRKMPLDETALVHLMKAKFPTIDNRYANYMPVYLIDQMISVCDFEGLPYQMTPALIDRAWSNMFVRDEVIAK | not soluble |
| MKLFISPGACSLAPHIALRETGADFEAVKVDLAVRKTEAGEDFLTVNPSGKVPALTLDSGETLTENPAILLYIADQNPASGLAPAEGSLDRYRLLSRLSFLGSEFHKAFVPLFAPATSDEAKAAAAESVKNHLAALDKELAGRDHYAGNAFSVADIYLYVMLGWPAYVGIDMAAYPALGAYAGKIAQRPAVGAALKAEGLA | soluble |
| MDANEKKEVIKKRFQEIAMSGGTCCSGGGCCGDSSSSDISRAIGYSEADIEAVPDANMGLGCGNPASIAELKPGDIVLDLGSGAGFDCFLAAQKVGNSGKVIGVDMTPEMVEKVQANARKYGYSNVEFRQGDIEALPVEDSSVDVIISNCVINLAPDKEKVFREAFRVLKLGGRLYISDLVLLDELPEDLKNDRDLLAGCVAGAVLKEEYLKLLKRAGFSVEILAEDPDISKSQYKGLPVESLKLKAWVLEHHHHHH | soluble |
| MLKQLLEQATSNNGKARLYAFENTVELTNLIPPTVSYESGGNTLIVGPTAIIESAAAQLSQMNSLTLLSTDGEKGTNPELYYANSVQVSGFLGTFEVLIENHGSTNNLAKVAINSDCFDIVLDLCLNSCMSEEVPVPGYYPVGRGYPKLAEALEEIPTLMGTFDKPKFFRLDTDLCAHSSRGVKGCERCVDACPAGALSSEGSDKTGHRIEINPYLCQGVGTCATACPTEAIHYALPNPEDTQKFIERTLANYEQAGGLDPIVLICSSRHESYNVMALKALPDNVIPIVVEELPSVGIDTWFAALVNGATQVLFAASRFMPQTIIRVLNSEVGIAQELLDQLGIAKETIDILYLESLREGAPTLCTESFDLALGDLQGNKRQRLFTALDALSASRIPVENIVELPANAPYGTVSCESKDC | not soluble |
| MKLVIDAGHGGYDSGAVGNGLVEKNLTLQIARRVRDILTVNYPITIKMTRDSDVFISLSERANIANAFSADYFISFHINSGGGTGFESYIYNALSNSSTAYAKQQKMHTAVNPVLTKYGLRDRGAKKENYAVLRETAMDAILTETAFIDTAFDANLLKNPQFIEDLSQAYANGIAAIFGVAPNPQPPNPQPVPQTKGIAYVLGKNVNLRNGPSTSSSVIRQLNSPESYVVYQESNGWLDLGNGQWVYNDSSYINFVKTSNSDGSPIGVAYIQGMNVNLRSGPSTTSAVIRQLNSPESYLVYINENGWLNLGGNQWVYNDPAYIKYTQY | not soluble |
| MLTNCASKTLAAVRANIRAIATSSARASDNLFVHRDTPEDNPNIPFEFTAENKKRVEAILSIYPEGHKRGAMIPLLDLAQRQYGWLPISAMHKVAEILQLPNMRVYEVATFYTMFMRKPTGKYHIQVCTTTPCWLRGSDDILETCKKQLGIGVGDTTKDRKFTISEVECLGACVNAPMVAINDDYYEDLTSKDMQDILNDLKADKISPPGPRNGRFASEPKGEPTSLSEEPKGPGFGLQAGL | not soluble |
| MSLVTNKLGRDIPQPYADQYGVFEGELANIKQYDESSRRIKPVKPGDSKLLGSVREAIEKTGLTDGMTISFHHHFREGDFIMNMVLEEIAKMGIKNLSIAPSSIANVHEPLIDHIKNGVVTNITSSGLRDKVGAAISEGLMENPVVIRSHGGRARAIASGDIHIDVAFLGAPSSDAYGNVNGTKGKATCGSLGYAMIDAKYADQVVILTDNLVPYPNTPISIPQTDVDYVVTVDAIGDPQGIAKGATRFTKNPKELLIAEYAAKVITNSPYFKEGFSFQTGTGGASLAVTRFMREAMIKENIKASFALGGITNAMVELLEEELVEKILDVQDFDHPSAVSLGKHAEHYEIDANMYASPLSKGAVINQLDTCILSALEVDTNFNVNVMTGSDGVIRGASGGHCDTAFAAKMSLVISPLIRGRIPTFVDEVNTVITPGTSVDVIVTEVGIAINPNRQDLVDHFKSLNVPQFSIEELKEKAYAIVGTPERIQYGDKVVALIEYRDGSLMDVVYNVEGHHHHHH | soluble |
| MEISNVYVPPRSSSSNHARLMTDFSNIFQTKSKSIISGDVNAHHSAWHSEGSEDTRGRELAELIDLHPDLIIQNEQVHTRADTYSISSPDITICTADLATKCHWSTLYKLGSDHIPMKLKINQAATPKRPKRLVANFKKANWQLFRDHIESRINGYSGPMDAIPMEKFFNKVILEADKKAVPKGSIDPKLKVDPKPLRLLAKEIADRETRNPLDPEIPILTRELATKRAERKNSEWRKKAHDQNAKRKSDVSSFWKLIKGVTKGRQYKGPVAFGDGLPKTGATIANKMAKSLVEAGRTKISHDEELKWRKNVRRNKRISKIAPLQDRITSIELHNMAIKMSPSAAIGPDGIAQIHIRKLPMCGYSFLAYLYNVSLSTNIIPDKWKKANVIMIPKPKKDPAIASSYRPISLLSPIAKLLEKAILKRIKNSIESPAHQHGFKPEHSTTTAVIQVTNDIIGGLNMKNPPERAIMACLDLRAAFDKVPTKKLCNDLMEAQGIEPKIKLWLGNYLHKRLIRTSHDNHWSKWHTLLGGVPQGSVISPNLFTFYLKDMPTQQDTMLISYADDMSIIARDKKIEKAAEKVQLHIDEIAKYLKERGMSISAEKSTVTVFSCDPKEHKTKPDIYWMDDPIPVINAPKLLGITLNTMTGTKDHVGNAIKSMQNKTRVIKSMAGTSWGNDRETMLYTTQALIKPTALYGAPAWTSLLSDTNLEKLEIAYRSALRACVGLTKDTPTDHIYQECRVLPLKEEYKLATQQMYLAAIKSNTHPCRDLKAKGQLERTSKPPRIPPLKLSDSEKLRLDNIPGDKTETQKKNHTKLVADFIRNAPNNRILNKPPPRVNYRDERTLPKETRCELARLRCGHSLLVEKYKARLEERQIKKCLNCGDEEGDVQHLLSCLQTPVPLEELWTSPLTVAAALGLPTKTPFDPGGGH | not soluble |
| MGSDKIHHHHHHMRFAPPNPLRIADRASGLNSLSVRSYNERLVLSLLLQNEATTRLEIGEKTGLSAQTISVIVRSLEQEGLVVRGEAQKGRVGPPTTPLMLNSEGAYSVGVSVGYHNTHIVVVDFIGNVQHHRVMPHKAADTFDAPEALALEIRLAVAGLSESRQARIAGVGLALPTPPIRSEPDHDVLHRYLEAEFGLPVFVQNDITAAAGGESLFGTARQLQDFLFFYLGARLHCRLVLNHQIYNGNSPLSYDVGVLALERRLPADSAMAEKLWGQDLSWPPLEATLADWQQACAENLIQLTQSLLQFIELRTVVLSSFVPAAICEALCRLVRQEIPSVNAVVGRTSAAPKAVGAASLPFSSRFMVN | not soluble |
| MQIQTPDWVKHAVFYQIFPDRFARSKQPRKRLLQEARWEDWDSMPTLQGYKGGDLWGIMEDLDYIQNLGINAIYFTPIFQSASNHRYHTHDYYQVDPMLGGNEAFKELLDAAHQRNIKVVLDGVFNHSSRGFFFFHDVLENGPHSPWVNWFKIEGWPLSPYNGEFPANYVGWAGNRALPEFNHDNPEVREYIMEIAEYWLKFGIDGWRLDVPFEIKTPGFWQEFRDRTKAINPEAYIVGEVWGDSRQWLDGTQFDGVMNYLFAGPTIAFAAGDRVVLEQVQSRDYQPYPPLFAAEYATKIQEVLQLYPWEIQLTQLNLLASHDTARLMTIAGGDIASVELSTLLLLTFPGAPSIYYGDEVGLPGGIDPDSRRGFPLEANWNQEIFNTHRQLITIRQTYPALRTGDYQVLYAQGQLYLFARTLGTEELIIAINAGTSSATANVDVASLHTQPNKLLYGTAEAEWNGEEGTQQLSLTLPARSGCILGTGD | soluble |
| PFKKRRTEDEIRKQCPWATLGRKGGRQPNIITSLELDSAVMEQNNLRFQKKYAEIEANEVRYEEYQTEDADYILVAFGSSARICNKTVQLARQQGIKAGILRPITLWPFPTKEIAKLADRAKGFLVAELNAGQMIEDVRLAVNGKVPVEHYGRMGGMLFSPDEILQALKEKVIK | not soluble |
| MSLKKTVSLCDITITQMLEEDSNQGHLIGDFSKVCALPTVSGKHQDLKYVNPETVAALLSGKFQGLIEKFYVIDCRYPYEYLGGHIQGALNLYSQEELFNFFLKKPIVPLDTQKRIIIVFHCEFSSERGPRMCRCLREEDRSLNQYPALYYPELYILKGGYRDFFPEYMELCEPQSYCPMHHQDHKTELLRCRSQSKVQEEGHHHHHH | soluble |
